Data taken from patent publication US20220017634A1 (DENALI THERAPEUTICS, published 2022).

B1: Clone CH2A2.4, Fc displayed on phage (designed binder)
chain: APELLGGPSVFLFPPKPKDTLMISRTPEVTCVVVDVSHEDPEVSFEWYVDGVPVRWEWQWPREEQYNSTYRVVSVLTVLHQDWLNGKEYKCKVSNKALPAPIEKTISKAKGQPREPQVYTLPPSRDELTKNQVSLTCLVKGFYPSDIAVEWESNGQPENNYKTTPPVLDSDGSFFLYSKLTVDKSRWQQGNVFSCSVMHEALHNHYTQKSLSLSPGK
notes: As m16
B2: Clone CH2A2.16, Fc displayed on phage (designed binder)
chain: APELLGGPSVFLFPPKPKDTLMISRTPEVTCVVVDVSHEDPEVWFEWYVDGVFVGVAYDVPREEQYNSTYRVVSVLTVLHQDWLNGKEYKCKVSNKALPAPIEKTISKAKGQPREPQVYTLPPSRDELTKNQVSLTCLVKGFYPSDIAVEWESNGQPENNYKTTPPVLDSDGSFFLYSKLTVDKSRWQQGNVFSCSVMHEALHNHYTQKSLSLSPGK
notes: As m16
B3: Clone CH2A2.5, Fc displayed on phage (designed binder)
chain: APELLGGPSVFLFPPKPKDTLMISRTPEVTCVVVDVSHEDPEVAFTWYVDGVPVRWEWQNPREEQYNSTYRVVSVLTVLHQDWLNGKEYKCKVSNKALPAPIEKTISKAKGQPREPQVYTLPPSRDELTKNQVSLTCLVKGFYPSDIAVEWESNGQPENNYKTTPPVLDSDGSFFLYSKLTVDKSRWQQGNVFSCSVMHEALHNHYTQKSLSLSPGK
notes: As m16
B4: Clone CH2A2.1, Fc displayed on phage (designed binder)
chain: APELLGGPSVFLFPPKPKDTLMISRTPEVTCVVVDVSHEDPEVEFIWYVDGVDVRYEWQLPREEQYNSTYRVVSVLTVLHQDWLNGKEYKCKVSNKALPAPIEKTISKAKGQPREPQVYTLPPSRDELTKNQVSLTCLVKGFYPSDIAVEWESNGQPENNYKTTPPVLDSDGSFFLYSKLTVDKSRWQQGNVFSCSVMHEALHNHYTQKSLSLSPGK
notes: Fc dimer on phage (pIII fusion with c-Myc and 6xHis tags paired with soluble Fc)

Experiments:
[1] = target: T1, human transferrin receptor (human TfR) (human, UniProt P02786 89-760, limits assumed); experiment: phage ELISA
T1 construct: Recombinant target coated on plates or biotinylated and captured on streptavidin (ELISA, BLI); also called huTfR
T1 sequence (P02786 89-760 limits assumed): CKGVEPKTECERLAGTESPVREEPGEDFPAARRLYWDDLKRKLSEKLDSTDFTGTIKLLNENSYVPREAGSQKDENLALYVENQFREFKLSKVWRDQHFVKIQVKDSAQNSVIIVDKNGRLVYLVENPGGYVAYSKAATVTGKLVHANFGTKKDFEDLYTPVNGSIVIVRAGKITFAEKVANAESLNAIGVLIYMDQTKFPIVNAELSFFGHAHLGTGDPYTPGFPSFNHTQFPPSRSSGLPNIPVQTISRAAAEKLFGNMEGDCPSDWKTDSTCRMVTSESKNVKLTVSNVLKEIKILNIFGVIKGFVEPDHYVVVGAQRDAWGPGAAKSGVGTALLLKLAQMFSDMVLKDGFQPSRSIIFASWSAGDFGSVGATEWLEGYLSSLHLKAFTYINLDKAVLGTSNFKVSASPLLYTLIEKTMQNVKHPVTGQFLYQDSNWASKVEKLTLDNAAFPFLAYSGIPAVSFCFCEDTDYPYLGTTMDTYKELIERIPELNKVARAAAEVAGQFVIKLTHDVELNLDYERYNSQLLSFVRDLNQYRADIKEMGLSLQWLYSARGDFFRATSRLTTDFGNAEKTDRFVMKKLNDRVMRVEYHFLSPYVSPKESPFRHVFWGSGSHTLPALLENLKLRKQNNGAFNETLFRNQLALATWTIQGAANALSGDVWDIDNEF
Method: (§1) Clones were selected from panning outputs and grown in individual wells of 96-well deep-well plates. The clones were either induced for periplasmic expression using autoinduction media (obtained from EMD Millipore) or infected with helper phage for phage-display of the individual Fc variants on phage. The cultures were grown overnight and spun to pellet E. coli. For phage ELISA, phage containing supernatant was used directly. For periplasmic expression, pellets were resuspended in 20% sucrose, followed by dilution at 4:1 with water, and shaken at 4° C. for 1 hour. Plates were spun to pellet the solids and supernatant was used in the ELISA.
(§2) ELISA plates were coated with target, typically at […] overnight, then blocked with 1% BSA before addition of phage or periplasmic extracts. […] The plates were washed again, and then developed with TMB reagent and quenched with 2N sulfuric acid. Absorbance at 450 nm was quantified using a plate reader (BioTek®) and binding curves were plotted using Prism software where applicable. Absorbance signal for tested clones was compared to negative control (phage or paraplasmic extract lacking Fc). In some assays, soluble holo-transferrin was added during the binding step, typically at significant molar excess (greater than 10-fold excess).
(§3) Individual CH2A2 variants were expressed on the surface of phage and assayed for binding to human TfR, cyno TfR, or an irrelevant control by ELISA. Expression of Fc was confirmed by ELISA against anti-Myc antibody 9E10, which bound to the C-terminal c-Myc epitope tag. […] The three clones from group 1 also bound to cyno TfR, whereas the one clone from group 2 (i.e., clone 2A2.16) was specific for human TfR.

[2] = target: cynomolgus transferrin receptor (cyno TfR) (cynomolgus monkey, UniProt H9EXL1 89-760 (rhesus entry)); experiment: phage ELISA
Chain of cynomolgus transferrin receptor (cyno TfR) (chain, as listed by the source): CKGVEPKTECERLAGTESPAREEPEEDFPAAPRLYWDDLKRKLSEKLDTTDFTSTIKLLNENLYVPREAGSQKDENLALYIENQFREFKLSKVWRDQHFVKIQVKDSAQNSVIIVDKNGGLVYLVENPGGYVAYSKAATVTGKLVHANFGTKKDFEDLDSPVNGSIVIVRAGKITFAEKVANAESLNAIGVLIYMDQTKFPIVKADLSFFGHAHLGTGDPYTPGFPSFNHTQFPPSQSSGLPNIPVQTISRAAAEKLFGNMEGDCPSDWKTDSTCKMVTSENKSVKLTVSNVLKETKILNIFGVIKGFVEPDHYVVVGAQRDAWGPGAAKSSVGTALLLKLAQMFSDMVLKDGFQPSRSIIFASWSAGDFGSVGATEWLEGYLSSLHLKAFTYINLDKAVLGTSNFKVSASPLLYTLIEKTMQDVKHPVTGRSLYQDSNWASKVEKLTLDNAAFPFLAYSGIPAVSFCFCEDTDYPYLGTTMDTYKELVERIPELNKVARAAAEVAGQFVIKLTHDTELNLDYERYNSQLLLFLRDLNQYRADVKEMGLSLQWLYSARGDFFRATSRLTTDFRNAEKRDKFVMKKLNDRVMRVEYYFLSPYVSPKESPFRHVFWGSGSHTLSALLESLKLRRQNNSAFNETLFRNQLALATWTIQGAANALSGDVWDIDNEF
Method: as §1, §2, §3

Row | Binder | binding result [1] | binding result [2]
1 | B1 | binds | –
2 | B2 | binds | no binding
3 | B3 | binds | –
4 | B4 | binds | –
